Molecular target: thrombin (UniProt P00734;P00734 328-363;364-622)
Assay: electrochemical aptasensor (DPV); immobilized aptamer; signal suppression on thrombin binding; LOD 0.26 fM, range 1.0 fM to 1.0 uM (abstract), not a Kd; Thrombin incubation 40 min at ambient temperature, wash with PBS; DPV in 25 mM PBS pH 7.0, -0.1 to 0.5 V

B1: TBA (thrombin aptamer) (ssDNA)
DNA: GGTTGGTGTGGTTGG
modifications: 5'-SH-(CH2)6
binding result: binds
